Assay results published in patent publication US20250066490A1 (PROFOUNDBIO US, published 2025).

Tests used:
[1] = biological target: T1, human CD70 extra-cellular domain (ECD) linked to His tag (human, UniProt P32970 39-193); assay: BLI, global 1:1 fit over 200-3.13 nM; cell repeated in each concentration row
T1 construct: extracellular domain; also called Hu CD70; HU CD70; not shown: His tag
T1 sequence (looked up): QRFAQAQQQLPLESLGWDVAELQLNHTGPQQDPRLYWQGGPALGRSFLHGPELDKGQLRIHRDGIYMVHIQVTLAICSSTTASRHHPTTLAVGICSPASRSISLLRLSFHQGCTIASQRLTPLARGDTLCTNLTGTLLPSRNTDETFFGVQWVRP

[2] = biological target: T2, cyno CD70 recombinant ECD protein (cyno); assay: as above
T2 construct: extracellular domain; The sentence on the purchase names human, rat and mouse ECD-His only

[3] = biological target: T3, human CD70 expressed on the cell surface of tumor cell lines (human, UniProt P32970 1-193); assay: flow cytometry on Caki-1 cells, PE anti-human Fc, MFI; same fit as Table 6, which prints it in nM
T3 construct: whole, on cells
T3 sequence (looked up): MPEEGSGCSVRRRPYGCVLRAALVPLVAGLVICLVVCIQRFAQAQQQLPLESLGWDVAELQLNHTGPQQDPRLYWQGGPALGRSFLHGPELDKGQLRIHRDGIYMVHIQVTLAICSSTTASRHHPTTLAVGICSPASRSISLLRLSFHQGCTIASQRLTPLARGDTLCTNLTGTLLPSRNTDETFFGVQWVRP
Protocol: (§1) The lead antibodies were tested for binding to renal carcinoma cells and glioblastoma cells expressing CD70 on the cell surface by flow cytometry. […] U251 cells were cultured with MEM medium containing of 10% FBS and 1% NEAA+1 mM sodium pyruvate. DBTRG-05MG cells were cultured with DMEM medium (Gibco, Cat #C11995500BT) containing of 10% FBS. Each of the lead antibodies and the controls were incubated for 30 mins with the different cell lines (3×10⁵ cells per well) in 0.2 ml FACS buffer (1×PBS with 0.1% BSA) at 4° C. Then, the cells were pelleted, washed, and incubated at 4° C. for 30 mins with 100 μl of 1:200 diluted PE-conjugated anti human Fc (Abcam, Ab98596) in FACS buffer. The cells were pelleted again, washed with PBS, resuspended in FACS buffer and analyzed by flow cytometer (Beckman, CytoFLEX).
(§2) Antibodies 2H8 and 2D2 had slightly higher binding ability to the cell lines than that of antibody 69A7.

[4] = biological target: T3, human CD70 expressed on the cell …; assay: flow cytometry on Caki-1 cells
Protocol: as §1, §2

[5] = biological target: T3, human CD70 expressed on the cell …; assay: flow cytometry on U251 cells, PE anti-human Fc, MFI; same fit as Table 6, which prints it in nM
Protocol: as §1, §2

- Kd [1]: 0.807 nM
- koff [1]: 0.000254 s⁻¹
- kon [1]: 314000 M⁻¹ s⁻¹
- Kd [2]: 0.39 nM
- koff [2]: 0.000241 s⁻¹
- kon [2]: 618000 M⁻¹ s⁻¹
- EC50 [3]: 0.421 mg/L
- EC50 [4]: 2.81 nM
- EC50 [5]: 0.604 mg/L
B1: 2E7, full IgG (antibody, V domains shown)
VH: QVQLQESGPGLVKPSETLSLTCTVSGGSVSSDYYYWSWIRQPPGKGLEWLGYIYYSGSTNYNPSLKSRVTISVDTSKNQFSLKLRSVTTADTAVYYCARGDGDFLGVCFDYWGQGTLVTVSS
VL: EIVLTQSPATLSLSPGERATLSCRASQSVSSYLAWYQQKPGQAPRLLIFDASNRATGIPARFSGSGSGTDFTLTISSLEPEDFAVYYCQQRSNWPLTFGGGTKVEIK
